{"source": "the supplement of paper PMC9732359", "note": "± gives the uncertainty stated by the source."}
{"experiment": "protein stability index of a GFP-peptide fusion (yeast GPS) (PSI 1-4); higher = more stable; sorted into four equal gates, so the index is relative within each strain", "conditions": "pdr5∆", "in_short": "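Plasmids isolated from each sorting gate were PCR-amplified and Illumina-sequenced, and barcodes assigned the reads to strains. The gates, four of equal size, were set by GFP/Cherry fluorescence ratio on mid-log cultures in leucine-free medium. These cultures were yeast carrying a pooled library of tiled 17-residue yeast protein peptides fused downstream of GFP on a plasmid that also expresses Cherry. The protein stability index is the sum of every gate's read frequency times its gate number.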"}
{"sequence": "ILIESRIHRLARYYRTV [RPS13]", "protein stability index": "2.06 ± 0.06"}
{"sequence": "ILKKSLMTSHTKGDTSK [RTT102]", "protein stability index": "3.05 ± 0.085"}
{"sequence": "ILKTLERSICALGEFAD [YML031W/NDC1]", "protein stability index": "3.04 ± 0.075"}
{"sequence": "ILNELEVFIGRVKDQDG [YJR042W/NUP85]", "protein stability index": "3.05 ± 0.18"}
{"sequence": "ILNSHFDALRSLDDNST [YJL041W/NSP1]", "protein stability index": "2.07 ± 0.046"}
{"sequence": "ILQIREEIPSKSWDDSV [RRP6]", "protein stability index": "2.76 ± 0.092"}
{"sequence": "ILQNEHDYWNKIMQSIS [SRB4]", "protein stability index": "2.37 ± 0.062"}
{"sequence": "ILRDYGPQEAANAMNRM [RPO31]", "protein stability index": "1.83 ± 0.26"}
{"sequence": "ILRKSFDFLMNMPNCDY [RPN2]", "protein stability index": "1.1 ± 0.092"}
{"sequence": "ILRSIPDKLLGVILMFA [COB]", "protein stability index": "1.58 ± 0.046"}
{"sequence": "ILSEILCQINKCSTRGL [YML103C/NUP188]", "protein stability index": "1.55 ± 0.084"}
{"sequence": "ILSNVDLAMANSLRRVM [RPB3]", "protein stability index": "2.54 ± 0.047"}
{"sequence": "ILTIIEEYKKSLYAYCH [GRR1]", "protein stability index": "1.33 ± 0.21"}
{"sequence": "ILTTAVGLVSPSFMLKH [RPN1]", "protein stability index": "1.93 ± 0.12"}
{"sequence": "ILVLALEDLKDVYASKV [PRP8]", "protein stability index": "1.8 ± 0.057"}
{"sequence": "ILYSFKLSGKLLKEEKI [YML103C/NUP188]", "protein stability index": "1.6 ± 0.063"}
{"sequence": "IMELPGVYSDDELLSQL [SRP68]", "protein stability index": "3.13 ± 0.056"}
{"sequence": "IMQEAGLRAVRKNRYVI [RPT3]", "protein stability index": "2.97 ± 0.099"}
{"sequence": "INCNKETIENVKLQMIK [ECM29]", "protein stability index": "3.03 ± 0.16"}
{"sequence": "INELFKKYTQNNPLLLI [RPN8]", "protein stability index": "1.48 ± 0.05"}
{"sequence": "INELVLENFKSYAGKQV [SMC4]", "protein stability index": "2.75 ± 0.057"}
{"sequence": "INESAENFSNGISLVME [MED1]", "protein stability index": "3.16 ± 0.07"}
{"sequence": "INGWELTKAQKYLDQVL [RPL17B]", "protein stability index": "2.9 ± 0.17"}
{"sequence": "INHKINNKITQLIAKNV [SIR3]", "protein stability index": "1.7 ± 0.062"}
{"sequence": "INIKYLRLDGHTKSDER [SNF2]", "protein stability index": "2.11 ± 0.063"}
{"sequence": "ININEFALPAGSPKSAT [CDC53]", "protein stability index": "2.76 ± 0.053"}
{"sequence": "INKMVGNRYLEKRLNLR [RPL21A]", "protein stability index": "2.8 ± 0.077"}
{"sequence": "INSAPDFTQEDELRKQE [ISW2]", "protein stability index": "3.52 ± 0.068"}
{"sequence": "INSTKNGKDNNNESNKN [MED2]", "protein stability index": "3.15 ± 0.045"}
{"sequence": "INVDNDPFFAQSEDLSH [YML103C/NUP188]", "protein stability index": "3.08 ± 0.056"}
{"sequence": "IPAWFLNRQNDITDGKD [RPS18A]", "protein stability index": "3.22 ± 0.15"}
{"sequence": "IPISSETTIDDLPISST [SMC1]", "protein stability index": "2.72 ± 0.061"}
{"sequence": "IPMDFIRNVLVTVDQYV [SSN2]", "protein stability index": "1.58 ± 0.056"}
{"sequence": "IPNLTAKPFQVTKEYFQ [FAS1]", "protein stability index": "2.95 ± 0.049"}
{"sequence": "IPPPMPKNQQYRAFGSI [MED7]", "protein stability index": "2.31 ± 0.093"}
{"sequence": "IPRHLQLAIRNDDELNK [HTA1]", "protein stability index": "3.23 ± 0.063"}
{"sequence": "IPSQRGTSTTHGSISPQ [SIR3]", "protein stability index": "2.58 ± 0.035"}
{"sequence": "IPTLAIDSVEVETNTTV [RPB3]", "protein stability index": "2.44 ± 0.16"}
{"sequence": "IPVEILVRRLSDIKQGY [PRE9]", "protein stability index": "2.72 ± 0.095"}
{"sequence": "IPVGDNTVVGISGDISD [PRE4]", "protein stability index": "3.12 ± 0.12"}
{"sequence": "IPYAAKLLFQELMAMNI [RPB2]", "protein stability index": "1.66 ± 0.098"}
{"sequence": "IPYGPDFDNIEFKKIPR [SEC65]", "protein stability index": "3.1 ± 0.11"}
{"sequence": "IQAVFCLTKFQDEEQTE [YCG1]", "protein stability index": "2.24 ± 0.062"}
{"sequence": "IQCQIDKLYIHFVQEEP [RGR1]", "protein stability index": "2.55 ± 0.093"}
{"sequence": "IQFGAKNMFEKKASKVT [ISW2]", "protein stability index": "2.91 ± 0.072"}
{"sequence": "IQKESTLHLVLRLRGGG [RPS31]", "protein stability index": "2.31 ± 0.067"}
{"sequence": "IQLLDENVGTRLLPINV [MED11]", "protein stability index": "2.86 ± 0.1"}
{"sequence": "IQLSTVNRQSPLFFVDL [RGR1]", "protein stability index": "1.69 ± 0.094"}
{"sequence": "IQNKKIQEQRVKDKQSK [RPN8]", "protein stability index": "2.78 ± 0.13"}
{"sequence": "IQPTAKVVYIQRRSWRQ [DIS3]", "protein stability index": "1.48 ± 0.072"}
{"sequence": "IQQLISQFLKRVHANLQ [SNF11]", "protein stability index": "1.61 ± 0.044"}
{"sequence": "IQRTTESLILKWDNQSA [RGR1]", "protein stability index": "3.05 ± 0.056"}
{"sequence": "IQSKAVEQGYEDAFNFW [YCG1]", "protein stability index": "3.33 ± 0.17"}
{"sequence": "IQYVTYLLTQQQIWKSP [SOH1]", "protein stability index": "2.07 ± 0.057"}
{"sequence": "IRAELLNDRKVLFAAYK [RPB11]", "protein stability index": "2.19 ± 0.063"}
{"sequence": "IRGILMASGSTTFTKVA [PRP8]", "protein stability index": "2.02 ± 0.1"}
{"sequence": "IRIYFTEKDDNKTNNED [NUT1]", "protein stability index": "2.95 ± 0.071"}
{"sequence": "IRKGANDGEVYQKIFKP [PRE9]", "protein stability index": "1.81 ± 0.068"}
{"sequence": "IRKGPAPLNLEIPAYEF [RIP1]", "protein stability index": "2.58 ± 0.083"}
{"sequence": "IRKLTLRDTFIELDQVL [RPO21]", "protein stability index": "2.89 ± 0.079"}
{"sequence": "IRKYGLNICRQCFREKA [RPS29A]", "protein stability index": "1.67 ± 0.045"}
{"sequence": "IRLANESSELNKDSIEE [CSN12]", "protein stability index": "3.43 ± 0.079"}
{"sequence": "IRLSKILEDDFAVALKN [CDC53]", "protein stability index": "3.16 ± 0.14"}
{"sequence": "IRPTELRLPFSAAMSID [PRP8]", "protein stability index": "1.98 ± 0.037"}
{"sequence": "IRSSRSRGIVIGSGAMS [RPP1]", "protein stability index": "2.77 ± 0.09"}
{"sequence": "ISHDDLQAVAVAVSTKK [FAS2]", "protein stability index": "1.48 ± 0.099"}
{"sequence": "ISHIEKRIESLQKDLQR [SMC1]", "protein stability index": "2.48 ± 0.077"}
{"sequence": "ISICMILCGIQEYLNPV [YDL116W/NUP84]", "protein stability index": "1.61 ± 0.11"}
{"sequence": "ISKKIIGMSLLMRTFLY [SIR3]", "protein stability index": "2.31 ± 0.065"}
{"sequence": "ISKSLTFSQESGLMVIL [RRI2]", "protein stability index": "2.33 ± 0.11"}
{"sequence": "ISLPKGKGIKLSIAEER [RPS4A]", "protein stability index": "2.18 ± 0.28"}
{"sequence": "ISNYNTKYTDDMATGSN [SRB8]", "protein stability index": "2.52 ± 0.11"}
{"sequence": "ISPKGGRRISENGQRDL [RPS19A]", "protein stability index": "2.81 ± 0.2"}
{"sequence": "ISPKIWCAGAGTAADTE [PUP1]", "protein stability index": "2.36 ± 0.088"}
{"sequence": "ISQKLHDSILHSRILPK [RRP43]", "protein stability index": "2.58 ± 0.033"}
{"sequence": "ISQLYSDAVMAEHSQNK [YJL041W/NSP1]", "protein stability index": "2.83 ± 0.081"}
{"sequence": "ISSSTQCLRFLKETVIP [POP6]", "protein stability index": "1.87 ± 0.11"}
{"sequence": "ISTYISTDELVGSPLTV [POP8]", "protein stability index": "2.6 ± 0.1"}
{"sequence": "ISVIETIRVVTENKIFV [RPN5]", "protein stability index": "1.82 ± 0.1"}
{"sequence": "ISYKKGAASNRTKFVRS [RPL36A]", "protein stability index": "3.2 ± 0.1"}
{"sequence": "ITATLVGTVRCEEEKKT [CSL4]", "protein stability index": "1.9 ± 0.25"}
{"sequence": "ITDKGTVDGRLYQLFKT [YJL039C/NUP192]", "protein stability index": "3.46 ± 0.097"}
{"sequence": "ITDKTIESIVNLAPKLR [GRR1]", "protein stability index": "2.27 ± 0.059"}
{"sequence": "ITHPGKMELVYVSDSDD [SIR4]", "protein stability index": "3.34 ± 0.075"}
{"sequence": "ITHQLNNKFANKIIPNV [RPC25]", "protein stability index": "3.03 ± 0.08"}
{"sequence": "ITKFALFAESHDVLQKL [YML103C/NUP188]", "protein stability index": "1.78 ± 0.2"}
{"sequence": "ITLVEPEILRFKVYEPL [RPS16A]", "protein stability index": "3.25 ± 0.21"}
{"sequence": "ITNTDETITTKRVPNPN [SWP82]", "protein stability index": "3.25 ± 0.098"}
{"sequence": "ITSFDQDVDDAHAIDQM [POP8]", "protein stability index": "1.23 ± 0.061"}
{"sequence": "ITSFGFGQKGGQAIVVH [FAS2]", "protein stability index": "1.44 ± 0.036"}
{"sequence": "ITSINVENDTFIERNFT [FAS2]", "protein stability index": "2.68 ± 0.081"}
{"sequence": "ITVTAKQQPTMQANKLD [SWI3]", "protein stability index": "3.15 ± 0.071"}
{"sequence": "ITYGIIKVPTYIRKLIS [SRB8]", "protein stability index": "1.44 ± 0.091"}
{"sequence": "IVEEDLEPFEASKETAE [FAS2]", "protein stability index": "3.21 ± 0.11"}
{"sequence": "IVEINNVSNTFNKTTNI [YJL041W/NSP1]", "protein stability index": "2.9 ± 0.05"}
{"sequence": "IVFDNTDKSNSPIGFTN [SMC2]", "protein stability index": "3.15 ± 0.063"}
{"sequence": "IVFHNEFSEHTFVERLP [DIS3]", "protein stability index": "2.28 ± 0.063"}
{"sequence": "IVNNDLPTTVVSNPGDN [MED2]", "protein stability index": "2.96 ± 0.052"}
{"sequence": "IVPSMTHLEIEPFTILG [RET1]", "protein stability index": "2.05 ± 0.055"}
{"sequence": "IVRPAKGVATTREKVLE [RRP46]", "protein stability index": "2.83 ± 0.1"}
{"sequence": "IVTALLESDVNIALVSK [SRP54]", "protein stability index": "3.19 ± 0.088"}
{"sequence": "IWVGEWKEVLAHNPELE [RPO31]", "protein stability index": "2.36 ± 0.078"}
{"sequence": "IYAKYGAKGSTLIVVPF [FAS2]", "protein stability index": "2.72 ± 0.073"}
